Results on one molecule are retold here after US8133978.

The target in assay [1] is Human interleukin-18 (recombinant human IL-18) (human) (UniProt Q14116). Nature of the assay: cell-based or functional assay.
Assay [2] has the same target. Nature of the assay: ELISA, IL-18 bp-Fc coated at 0.5 ug/ml, human IL-18 added at 100 ng/ml, antibody titrated, detection anti-rat IgG HRP, Abs 490 nm.

Human interleukin-18 (recombinant human IL-18) (human), sequence (Q14116 37-193 limits assumed): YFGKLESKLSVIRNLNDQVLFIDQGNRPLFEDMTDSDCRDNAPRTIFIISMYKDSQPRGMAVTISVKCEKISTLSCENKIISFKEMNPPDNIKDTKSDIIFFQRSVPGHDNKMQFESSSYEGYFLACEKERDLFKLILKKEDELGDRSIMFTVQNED

B1: Parental rat antibody 2C10 (antibody, from another filing, V domains shown)
VH: EVQLQQSGAELVRPGTSVKLSCKVSGEISTGYYFHFVRRRPGQGLEWIGRIDPEDDSTKYAERFKDRATLTAQTSSNTAYLNLSSLTSEDTATYFCTTWRIYRDSSGRPFYVMDAWGQGASVTVSS
VL: DIQMTQSPASLSASLGETVSIECLASEDIYTYLTWYQQKPGKSPQLLIYGANKLQDGVPSRFSGSGSGTQYSLKISGIQPEDEGDYFCLQGSKFPLTFGSGTKLEIKR
On to B1, for which, in assay [1], the IC50, LPS-stimulated IFNγ release, human PBMC, Donor 1 10% serum stood at 0.023; the IC50, LPS-stimulated IFNγ release, human PBMC, Donor 1 25% serum was 0.069; the IC50, LPS-stimulated IFNγ release, human PBMC, Donor 3 10% serum was found to be 0.033; the IC50, LPS-stimulated IFNγ release, human PBMC, Donor 3 25% serum was 0.086. Also, in assay [1], the complete inhibition of IL-18 mediated IFNγ release, LPS-stimulated human PBMC, 10% or 25% human serum was over 1 µg/mL and the inhibition of LPS-induced IFNγ production in human PBMC was 1 µg/mL. The EC50 (read off the curve) in assay [2] was found to be 0.04 µg/mL.
